Assay results from the supplement of paper PMC5998384.

Columns and labels:
HeLa Kyoto [1] = experiment: solubility change mitosis vs G1/S (difference of NP-40 vs SDS log2 ratios) (log2 ratio difference); higher = more soluble in mitosis
HeLa Kyoto [2] = experiment: solubility in G1/S (NP-40 vs SDS abundance) (log2 ratio); higher = more soluble; settings: cell cycle stage: G1/S
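For solubility change mitosis vs G1/S (difference of NP-40 vs SDS log2 ratios) in this document: synchronized HeLa Kyoto cells (double thymidine block for G1/S, nocodazole release for mitosis), protein amounts in NP-40 versus SDS lysates quantified by mass spectrometry, three biological replicates.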
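For solubility in G1/S (NP-40 vs SDS abundance) in this document: HeLa Kyoto cells arrested at G1/S by double thymidine block, proteins quantified by TMT10plex mass spectrometry in mild NP-40 versus SDS extracts, three biological replicates.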

Sequence | solubility change mitosis (log2) (HeLa Kyoto [1]) | solubility in G1/S (log2) (HeLa Kyoto [2])
MAGAGGQHHPPGAAGGAAAGAGAAVTSAAASAGPGEDSSDSEAEQEGPQKLIRKVSTSGQIRTKTSIKEGQLLKQTSSFQRWKKRYFKLRGRTLYYAKDSKSLIFDEVDLSDASVAEASTKNANNSFTIITPFRRLMLCAENRKEMEDWISSLKSVQTREPYEVAQFNVEHFSGMHNWYACSHARPTFCNVCRESLSGVTSHGLSCEVCKFKAHKRCAVRATNNCKWTTLASIGKDIIEDEDGVAMPHQWLEGNLPVSAKCAVCDKTCGSVLRLQDWKCLWCKTMVHTACKDLYHPICPLGQCKVSIIPPIALNSTDSDGFCRATFSFCVSPLLVFVNSKSGDNQGVKFLRRFKQLLNPAQVFDLMNGGPHLGLRLFQKFDNFRILVCGGDGSVGWVLSEIDKLNLNKQCQLGVLPLGTGNDLARVLGWGGSYDDDTQLPQILEKLERASTKMLDRWSIMTYELKLPPKASLLPGPPEASEEFYMTIYEDSVATHLTKILNSDEHAVVISSAKTLCETVKDFVAKVEKTYDKTLENAVVADAVASKCSVLNEKLEQLLQALHTDSQAAPVLPGLSPLIVEEDAVESSSEESLGESKEQLGDDVTKPSSQKAVKPREIMLRANSLKKAVRQVIEEAGKVMDDPTVHPCEPANQSSDYDSTETDESKEEAKDDGAKESITVKTAPRSPDARASYGHSQTDSVPGPAVAASKENLPVLNTRIICPGLRAGLAASIAGSSIINKMLLANIDPFGATPFIDPDLDSVDGYSEKCVMNNYFGIGLDAKISLEFNNKREEHPEKCRSRTKNLMWYGVLGTRELLQRSYKNLEQRVQLECDGQYIPLPSLQGIAVLNIPSYAGGTNFWGGTKEDDIFAAPSFDDKILEVVAIFDSMQMAVSRVIKLQHHRIAQCRTVKITIFGDEGVPVQVDGEAWVQPPGIIKIVHKNRAQMLTRDRAFESTLKSWEDKQKCDSGKPVLRTHLYIHHAIDLATEEVSQMQLCSQAAEELITRICDAATIHCLLEQELAHAVNACSHALNKANPRCPESLTRDTATEIAINVKALYNETESLLVGRVPLQLESPHEERVSNALHSVEVELQKLTEIPWLYYILHPNEDEEPPMDCTKRNNRSTVFRIVPKFKKEKVQKQKTSSQPVQKWGTEEVAAWLDLLNLGEYKDIFIRHDIRGAELLHLERRDLKDLGIPKVGHVKRILQGIKELGRSTPQSEV [DGKH] | 0.0195 | -0.212
MEQRRVTDFFARRRPGPPRIAPPKLACRTPSPARPALRAPASATSGSRKRARPPAAPGRDQARPPARRRLRLSVDEVSSPSTPEAPDIPACPSPGQKIKKSTPAAGQPPHLTSAQDQDTISELASCLQRARELGARVRALKASAQDAGESCTPEAEGRPEEPCGEKAPAYQRFHALAQPGLPGLVLPYKYQVLAEMFRSMDTIVGMLHNRSETPTFAKVQRGVQDMMRRRFEECNVGQIKTVYPASYRFRQERSVPTFKDGTRRSDYQLTIEPLLEQEADGAAPQLTASRLLQRRQIFSQKLVEHVKEHHKAFLASLSPAMVVPEDQLTRWHPRFNVDEVPDIEPAALPQPPATEKLTTAQEVLARARNLISPRMEKALSQLALRSAAPSSPGSPRPALPATPPATPPAASPSALKGVSQDLLERIRAKEAQKQLAQMTRCPEQEQRLQRLERLPELARVLRSVFVSERKPALSMEVACARMVGSCCTIMSPGEMEKHLLLLSELLPDWLSLHRIRTDTYVKLDKAADLAHITARLAHQTRAEEGL [CDT1] | 0.575 | 0.0981
MSGSCAAPGPGSGSSPAACRFAHYFVLCGIDADSGLEPDELAGENFDQSPLRRTFKSKVLAHYPQNIEWNPFDQDAVNMLCMPKGLSFRTQTDNKDPQFHSFIITREDGSRTYGFVLTFYEEVTSKQICTAMQTLYQMHNAEHYSSVYASSSCSMDSLASSLDEGDTTSLLKLQRYNSYDISRDTLYVSKSICLITPLPFMQACKKFLIQLYKAVTSQQPPPLPLESYIHNILYEVPLPPPGRSLKFYGVYEPVICQRPGPSELPLSDYPLREAFELLGLENLVQVFTCVLLEMQILLYSQDYQRLMTVAEGITTLLFPFQWQHVYVPILPASLLHFLDAPVPYLMGLQSKEGTDRSKLELPQEANLCFVDIDNHFIELPEEFPQFPNKVDFIQELSEVLVQFGIPPEGSLHCSESTSKLKNMVLKDLVNDKKNGNVCTNNISMYELLKGNETIARLQALAKRTGVAVEKMDLSASLGEKDKDLKLHCEEAELRDYQLNVQLREVFANRFTQMFADYEAFVIQTAQDMESWLTNREQMQNFDKASFLSDQPEPYLPFLSRFIETQMFATFIDNKIMSQWEEKDPLLRVFDTRIDKIRLYNVRAPTLRTSIYQKCSTLKEAAQSIEQRLMKMDHTAIHPHLLDMKIGQGKYEQGFFPKLQSDVLATGPTSNNRWVSRSATAQRRKERLRQHSEHVGLDNDLREKYMQEARSLGKNLRQPKLSDLSPAVIAQTNCKFVEGLLKECRMKTKRMLVEKMGHEAVELGHGEANITGLEENTLIASLCDLLERIWSHGLQVKQGKSALWSHLIQFQDREEKQEHLAESPVALGPERRKSDSGVMLPTLRVSLIQDMRHIQNMSEIKTDVGRARAWIRLSLEKKLLSQHLKQLLSNQPLTKKLYKRYAFLRCEEEREQFLYHLLSLNAVDYFCFTSVFTTIMIPYRSVIIPIKKLSNAIITSNPWICVSGELGDTGVMQIPKNLLEMTFECQNLGKLTTVQIGHDNSGLLAKWLVDCVMVRNEITGHTYRFPCGRWLGKGIDDGSLERILIGELMTSASDEDLVKQCRTPPQQKSPTTARRLSITSLTGKNNKPNAGQIQEGIGEAVNNIVKHFHKPEKERGSLTVLLCGENGLVAALEQVFHHGFKSARIFHKNVFIWDFIEKVVAYFETTDQILDNEDDVLIQKSSCKTFCHYVNAINTAPRNIGKDGKFQILVCLGTRDRLLPQWIPLLAECPAITRMYEESALLRDRMTVNSLIRILQTIQDFTIVLEGSLIKGVDV [DENND5B] | -0.179 | -0.149
MSTEADEGITFSVPPFAPSGFCTIPEGGICRRGGAAAVGEGEEHQLPPPPPGSFWNVESAAAPGIGCPAATSSSSATRGRGSSVGGGSRRTTVAYVINEASQGQLVVAESEALQSLREACETVGATLETLHFGKLDFGETTVLDRFYNADIAVVEMSDAFRQPSLFYHLGVRESFSMANNIILYCDTNSDSLQSLKEIICQKNTMCTGNYTFVPYMITPHNKVYCCDSSFMKGLTELMQPNFELLLGPICLPLVDRFIQLLKVAQASSSQYFRESILNDIRKARNLYTGKELAAELARIRQRVDNIEVLTADIVINLLLSYRDIQDYDSIVKLVETLEKLPTFDLASHHHVKFHYAFALNRRNLPGDRAKALDIMIPMVQSEGQVASDMYCLVGRIYKDMFLDSNFTDTESRDHGASWFKKAFESEPTLQSGINYAVLLLAAGHQFESSFELRKVGVKLSSLLGKKGNLEKLQSYWEVGFFLGASVLANDHMRVIQASEKLFKLKTPAWYLKSIVETILIYKHFVKLTTEQPVAKQELVDFWMDFLVEATKTDVTVVRFPVLILEPTKIYQPSYLSINNEVEEKTISIWHVLPDDKKGIHEWNFSASSVRGVSISKFEERCCFLYVLHNSDDFQIYFCTELHCKKFFEMVNTITEEKGRSTEEGDCESDLLEYDYEYDENGDRVVLGKGTYGIVYAGRDLSNQVRIAIKEIPERDSRYSQPLHEEIALHKHLKHKNIVQYLGSFSENGFIKIFMEQVPGGSLSALLRSKWGPLKDNEQTIGFYTKQILEGLKYLHDNQIVHRDIKGDNVLINTYSGVLKISDFGTSKRLAGINPCTETFTGTLQYMAPEIIDKGPRGYGKAADIWSLGCTIIEMATGKPPFYELGEPQAAMFKVGMFKVHPEIPESMSAEAKAFILKCFEPDPDKRACANDLLVDEFLKVSSKKKKTQPKLSALSAGSNEYLRSISLPVPVLVEDTSSSSEYGSVSPDTELKVDPFSFKTRAKSCGERDVKGIRTLFLGIPDENFEDHSAPPSPEEKDSGFFMLRKDSERRATLHRILTEDQDKIVRNLMESLAQGAEEPKLKWEHITTLIASLREFVRSTDRKIIATTLSKLKLELDFDSHGISQVQVVLFGFQDAVNKVLRNHNIKPHWMFALDSIIRKAVQTAITILVPELRPHFSLASESDTADQEDLDVEDDHEEQPSNQTVRRPQAVIEDAVATSGVSTLSSTVSHDSQSAHRSLNVQLGRMKIETNRLLEELVRKEKELQALLHRAIEEKDQEIKHLKLKSQPIEIPELPVFHLNSSGTNTEDSELTDWLRVNGADEDTISRFLAEDYTLLDVLYYVTRDDLKCLRLRGGMLCTLWKAIIDFRNKQT [MAP3K5] | 0.654 | -1.04
MAREPRKNAALDAQSAEDQTGLLTVKVEKEEASALTAEVRAPCSPARGPERSRQRFRGFRYPEAAGPREALSRLRELCGQWLQPEMHSKEQILELLVLEQFLTILPGNLQSWVREQHPESGEEVVVLLEYLERQLDEPAPQVPVGDQGQELLCCKMALLTQTQGSQSSQCQPMKALFKHESLGSQPLHDRVLQVPGLAQGGCCREDAMVASRLTPGSQGLLKMEDVALTLTPGWTQLDSSQVNLYRDEKQENHSSLVSLGGEIQTKSRDLPPVKKLPEKEHGKICHLREDIAQIPTHAEAGEQEGRLQRKQKNAIGSRRHYCHECGKSFAQSSGLTKHRRIHTGEKPYECEDCGKTFIGSSALVIHQRVHTGEKPYECEECGKVFSHSSNLIKHQRTHTGEKPYECDDCGKTFSQSCSLLEHHKIHTGEKPYQCNMCGKAFRRNSHLLRHQRIHGDKNVQNPEHGESWESQGRTESQWENTEAPVSYKCNECERSFTRNRSLIEHQKIHTGEKPYQCDTCGKGFTRTSYLVQHQRSHVGKKTLSQ [ZKSCAN4] | 0.361 | -0.299
MGTIHLFRKPQRSFFGKLLREFRLVAADRRSWKILLFGVINLICTGFLLMWCSSTNSIALTAYTYLTIFDLFSLMTCLISYWVTLRKPSPVYSFGFERLEVLAVFASTVLAQLGALFILKESAERFLEQPEIHTGRLLVGTFVALCFNLFTMLSIRNKPFAYVSEAASTSWLQEHVADLSRSLCGIIPGLSSIFLPRMNPFVLIDLAGAFALCITYMLIEINNYFAVDTASAIAIALMTFGTMYPMSVYSGKVLLQTTPPHVIGQLDKLIREVSTLDGVLEVRNEHFWTLGFGSLAGSVHVRIRRDANEQMVLAHVTNRLYTLVSTLTVQIFKDDWIRPALLSGPVAANVLNFSDHHVIPMPLLKGTDDLNPVTSTPAKPSSPPPEFSFNTPGKNVNPVILLNTQTRPYGFGLNHGHTPYSSMLNQGLGVPGIGATQGLRTGFTNIPSRYGTNNRIGQPRP [SLC30A6] | -0.0121 | -0.097
MSGSHTPACGPFSALTPSIWPQEILAKYTQKEESAEQPEFYYDEFGFRVYKEEGDEPGSSLLANSPLMEDAPQRLRWQAHLEFTHNHDVGDLTWDKIAVSLPRSEKLRSLVLAGIPHGMRPQLWMRLSGALQKKRNSELSYREIVKNSSNDETIAAKQIEKDLLRTMPSNACFASMGSIGVPRLRRVLRALAWLYPEIGYCQGTGMVAACLLLFLEEEDAFWMMSAIIEDLLPASYFSTTLLGVQTDQRVLRHLIVQYLPRLDKLLQEHDIELSLITLHWFLTAFASVVDIKLLLRIWDLFFYEGSRVLFQLTLGMLHLKEEELIQSENSASIFNTLSDIPSQMEDAELLLGVAMRLAGSLTDVAVETQRRKHLAYLIADQGQLLGAGTLTNLSQVVRRRTQRRKSTITALLFGEDDLEALKAKNIKQTELVADLREAILRVARHFQCTDPKNCSVELTPDYSMESHQRDHENYVACSRSHRRRAKALLDFERHDDDELGFRKNDIITIVSQKDEHCWVGELNGLRGWFPAKFVEVLDERSKEYSIAGDDSVTEGVTDLVRGTLCPALKALFEHGLKKPSLLGGACHPWLFIEEAAGREVERDFASVYSRLVLCKTFRLDEDGKVLTPEELLYRAVQSVNVTHDAVHAQMDVKLRSLICVGLNEQVLHLWLEVLCSSLPTVEKWYQPWSFLRSPGWVQIKCELRVLCCFAFSLSQDWELPAKREAQQPLKEGVRDMLVKHHLFSWDVDG [SGSM3] | 0.011 | -0.177
